Legend:
[1] = target: human recombinant (hr) ACE2 (human) (UniProt Q9BYF1); assay: cell-based or functional assay
[2] = system: T1, 7-methoxycoumarin-Tyr-Val-Ala-Pro-(2,4-dinitrophenyl)Lys
T1 sequence: YVAPK

Chain of human recombinant (hr) ACE2 (human) (Q9BYF1 18-740 limits assumed): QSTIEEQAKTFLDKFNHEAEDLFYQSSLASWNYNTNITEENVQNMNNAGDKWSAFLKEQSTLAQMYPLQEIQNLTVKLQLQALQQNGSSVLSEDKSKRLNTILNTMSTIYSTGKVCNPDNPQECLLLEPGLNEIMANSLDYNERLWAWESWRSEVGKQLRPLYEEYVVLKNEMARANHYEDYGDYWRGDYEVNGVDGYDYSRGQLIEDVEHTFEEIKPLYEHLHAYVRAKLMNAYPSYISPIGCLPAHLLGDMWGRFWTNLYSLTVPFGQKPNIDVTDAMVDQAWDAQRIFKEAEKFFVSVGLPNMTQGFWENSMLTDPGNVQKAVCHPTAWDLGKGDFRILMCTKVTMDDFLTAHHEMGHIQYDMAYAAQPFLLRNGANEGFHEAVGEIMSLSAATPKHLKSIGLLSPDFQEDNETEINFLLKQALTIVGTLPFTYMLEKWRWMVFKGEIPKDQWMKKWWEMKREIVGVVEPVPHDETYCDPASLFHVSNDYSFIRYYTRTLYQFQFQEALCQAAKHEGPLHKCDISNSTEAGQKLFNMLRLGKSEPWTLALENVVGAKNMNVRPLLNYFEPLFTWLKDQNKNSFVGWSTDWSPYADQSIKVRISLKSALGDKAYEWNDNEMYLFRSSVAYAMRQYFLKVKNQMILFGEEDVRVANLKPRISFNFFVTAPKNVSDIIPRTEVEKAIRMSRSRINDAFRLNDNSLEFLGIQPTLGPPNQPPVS

Substance | quenching of the fluorescence signal from cleavage of 7-Mca-YVADAPK(Dnp) by hrACE2 (enzyme inhibition) [1] | fluorescence from cleavage of the substrate, hACE2 spiked into kidney extract of an ACE2-knockout mouse [2]
DX600 (peptide) | 100 nmol/L | 
human recombinant (hr) ACE2 |  | the fluorescence signal was recovered in a dose dependent manner, with a linear relationship (r=0.990, p<0.001) in the range of 0.4 to 50 ng ACE2 protein/well

— US20070105925A1
